Data: publication PMC1424673

T1: Irr (Bradyrhizobium japonicum, UniProt O85719 1-163)
T1 sequence: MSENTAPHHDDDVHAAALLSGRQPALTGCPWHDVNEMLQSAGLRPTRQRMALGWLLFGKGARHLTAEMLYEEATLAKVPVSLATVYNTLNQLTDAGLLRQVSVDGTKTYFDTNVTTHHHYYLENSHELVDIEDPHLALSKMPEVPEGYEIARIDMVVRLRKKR

B1: bll5796 ICE-like probe (dsDNA)
DNA 1: CAGGAATTCGATAGCTTAGAACGCTTCTATGCCGACCTC
DNA 2: GTCGAGGTCGGCATAGAAGCGTTCTAAGCTATCGAATTC
B2: blr3904 ICE-like probe (dsDNA)
DNA 1: CAGGAATTCGATACTTTAGAACCGTTTGAAACTGACCTC
DNA 2: GTCGAGGTCAGTTTCAAACGGTTCTAAAGTATCGAATTC
B3: non-specific pSK control (dsDNA)
DNA 1: CAGGAATTCGATATCAAGCTTATCGATACCGTCGACCTC
DNA 2: GTCGAGGTCGACGGTATCGATAAGCTTGATATCGAATTC

molecular target: T1, Irr; experiment: EMSA

| Binder | binding result |
| --- | --- |
| B1 | binds |
| B2 | binds |
| B3 | no binding |
